Experimental data taken from patent publication US20210063414A1, “METHODS FOR PREVENTING AND/OR TREATING BONE LOSS CONDITIONS BY MODULATING IRISIN” (Dana-Farber Cancer Institute, Inc., priority 2018, published 2021).

Legend:
Assay in all cases: Crosslinking/co-immunoprecipitation/mass spectrometry (TMT quantitative proteomics) to identify irisin receptors
Format in all cases: binding
[1] = biological target: T1, MLO-Y4 cell surface proteins (Mus musculus, UniProt E9Q0C6); conditions: co-precipitated protein Gm14569 (E9Q0C6_MOUSE)
T1 construct: endogenous in cells; host or cells: MLO-Y4
T1 sequence (E9Q0C6 whole entry): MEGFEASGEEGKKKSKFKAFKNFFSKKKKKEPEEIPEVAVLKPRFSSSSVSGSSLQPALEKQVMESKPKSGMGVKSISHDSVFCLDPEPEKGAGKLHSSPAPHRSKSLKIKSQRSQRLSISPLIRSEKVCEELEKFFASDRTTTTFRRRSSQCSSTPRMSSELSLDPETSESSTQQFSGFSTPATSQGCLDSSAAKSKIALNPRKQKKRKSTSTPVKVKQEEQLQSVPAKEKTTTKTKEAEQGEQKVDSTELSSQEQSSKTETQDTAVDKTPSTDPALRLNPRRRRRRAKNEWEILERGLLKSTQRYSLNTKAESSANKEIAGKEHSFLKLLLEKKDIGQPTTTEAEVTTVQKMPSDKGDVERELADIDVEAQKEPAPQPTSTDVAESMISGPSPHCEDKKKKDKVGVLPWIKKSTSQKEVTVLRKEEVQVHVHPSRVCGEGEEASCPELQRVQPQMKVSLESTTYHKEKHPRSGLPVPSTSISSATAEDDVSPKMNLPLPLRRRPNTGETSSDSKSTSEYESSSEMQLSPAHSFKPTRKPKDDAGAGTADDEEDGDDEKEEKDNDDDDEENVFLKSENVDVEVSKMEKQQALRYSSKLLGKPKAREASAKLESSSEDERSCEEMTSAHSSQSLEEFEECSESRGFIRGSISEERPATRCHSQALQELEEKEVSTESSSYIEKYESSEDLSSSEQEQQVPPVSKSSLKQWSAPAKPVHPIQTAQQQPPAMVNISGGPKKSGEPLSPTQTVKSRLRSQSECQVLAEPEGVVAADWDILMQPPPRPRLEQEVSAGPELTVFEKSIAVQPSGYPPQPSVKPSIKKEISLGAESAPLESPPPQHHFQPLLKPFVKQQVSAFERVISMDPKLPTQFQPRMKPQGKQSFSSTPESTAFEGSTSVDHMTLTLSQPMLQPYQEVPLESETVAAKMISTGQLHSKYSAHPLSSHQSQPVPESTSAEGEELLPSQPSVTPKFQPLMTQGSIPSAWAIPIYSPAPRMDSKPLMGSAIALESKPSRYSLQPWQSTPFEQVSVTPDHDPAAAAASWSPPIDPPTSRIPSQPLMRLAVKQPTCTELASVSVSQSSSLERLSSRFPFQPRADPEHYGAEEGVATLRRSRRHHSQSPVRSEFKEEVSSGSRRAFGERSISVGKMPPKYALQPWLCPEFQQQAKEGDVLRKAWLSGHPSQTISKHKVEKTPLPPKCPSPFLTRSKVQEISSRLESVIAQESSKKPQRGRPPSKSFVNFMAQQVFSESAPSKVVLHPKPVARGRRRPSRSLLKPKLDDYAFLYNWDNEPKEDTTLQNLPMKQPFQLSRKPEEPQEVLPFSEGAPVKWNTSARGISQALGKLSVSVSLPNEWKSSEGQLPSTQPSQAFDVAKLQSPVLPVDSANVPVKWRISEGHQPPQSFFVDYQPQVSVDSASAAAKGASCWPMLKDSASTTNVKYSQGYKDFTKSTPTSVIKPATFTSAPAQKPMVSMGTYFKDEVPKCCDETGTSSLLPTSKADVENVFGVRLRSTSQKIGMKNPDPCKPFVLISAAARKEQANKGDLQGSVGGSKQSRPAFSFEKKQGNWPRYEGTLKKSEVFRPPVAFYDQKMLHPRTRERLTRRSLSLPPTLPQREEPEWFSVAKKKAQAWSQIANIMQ
Summary of the method: (§1)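 Relative protein abundance came from 6-plex TMT MS3 quantitation on an Orbitrap Fusion Lumos, after in-gel trypsin digestion of Coomassie-stained SDS-PAGE lanes. Input was a Ni-NTA pulldown (250 mM imidazole elution) of lysates from murine MLO-Y4 cells. These cells were treated on ice with His-tagged irisin or adipsin (10 nM, 20 min) in serum-free medium, then crosslinked with 1.5 mM DTSSP for 30 min.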

[2] = biological target: T2, MLO-Y4 cell surface proteins (Mus musculus, UniProt P39654); conditions: co-precipitated protein Alox15 (LOX15_MOUSE)
T2 construct: endogenous in cells; host or cells: MLO-Y4
T2 sequence (P39654 1-663): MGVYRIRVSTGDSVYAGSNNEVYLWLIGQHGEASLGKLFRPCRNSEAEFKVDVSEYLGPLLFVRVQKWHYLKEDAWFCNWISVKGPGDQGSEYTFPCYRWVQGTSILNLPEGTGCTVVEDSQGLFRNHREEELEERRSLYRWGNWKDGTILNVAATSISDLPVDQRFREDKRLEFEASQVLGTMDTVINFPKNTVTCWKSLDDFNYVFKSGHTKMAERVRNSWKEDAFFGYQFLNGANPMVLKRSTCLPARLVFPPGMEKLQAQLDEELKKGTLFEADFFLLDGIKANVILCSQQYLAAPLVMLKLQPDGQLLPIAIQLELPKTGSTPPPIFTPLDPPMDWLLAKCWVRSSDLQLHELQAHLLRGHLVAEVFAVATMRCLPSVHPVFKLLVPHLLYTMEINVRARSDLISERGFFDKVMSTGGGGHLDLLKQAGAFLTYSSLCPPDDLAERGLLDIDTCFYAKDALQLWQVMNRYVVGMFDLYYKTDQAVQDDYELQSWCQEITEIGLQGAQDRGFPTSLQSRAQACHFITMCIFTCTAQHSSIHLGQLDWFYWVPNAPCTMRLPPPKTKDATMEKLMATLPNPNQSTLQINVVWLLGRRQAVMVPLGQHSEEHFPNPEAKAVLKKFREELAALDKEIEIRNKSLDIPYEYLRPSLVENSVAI
Summary of the method: as §1

[3] = biological target: T3, MLO-Y4 cell surface proteins (Mus musculus, UniProt Q8BFT2); conditions: co-precipitated protein Haus4 (HAUS4_MOUSE)
T3 construct: endogenous in cells; host or cells: MLO-Y4
T3 sequence (Q8BFT2 1-363): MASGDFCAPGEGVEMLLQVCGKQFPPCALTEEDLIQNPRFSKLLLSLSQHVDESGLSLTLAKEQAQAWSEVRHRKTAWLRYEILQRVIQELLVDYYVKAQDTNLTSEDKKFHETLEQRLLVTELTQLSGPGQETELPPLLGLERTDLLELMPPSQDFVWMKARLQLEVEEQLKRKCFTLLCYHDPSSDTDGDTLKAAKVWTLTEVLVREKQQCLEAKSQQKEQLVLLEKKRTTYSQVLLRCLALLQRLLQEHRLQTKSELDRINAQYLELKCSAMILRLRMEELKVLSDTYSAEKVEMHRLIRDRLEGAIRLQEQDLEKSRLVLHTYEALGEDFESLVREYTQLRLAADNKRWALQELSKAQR
Summary of the method: as §1

[4] = biological target: T4, MLO-Y4 cell surface proteins (Mus musculus, UniProt Q99KR7); conditions: co-precipitated protein Ppif (PPIF_MOUSE)
T4 construct: endogenous in cells; host or cells: MLO-Y4
T4 sequence (Q99KR7 30-206): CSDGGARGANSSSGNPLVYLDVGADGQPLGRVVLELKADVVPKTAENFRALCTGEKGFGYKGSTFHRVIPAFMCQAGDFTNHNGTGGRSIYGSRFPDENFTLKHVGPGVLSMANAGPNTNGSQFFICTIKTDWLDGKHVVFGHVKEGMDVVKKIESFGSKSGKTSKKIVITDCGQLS
Summary of the method: as §1

B1: irisin: secreted cleaved form of FNDC5; recombinant human/mouse irisin with C-terminal his tag produced in HEK293 cells (protein)
chain: DSPSAPVNVTVRHLKANSAVVSWDVLEDEVVIGFAISQQKKDVRMLRFIQEVNTTTRSCALWDLEEDTEYIVHVQAISIQGQSPASEPVLFKTPREAEKMASKNKDEVTMKE
modifications: left off: small tags and cut ends
notes: secreted cleaved form of FNDC5; recombinant human/mouse irisin with C-terminal his tag produced in HEK293 cells
TMT signal-to-noise ratio [1]: 8.647
irisin/adipsin TMT signal-to-noise ratio [1]: 0.039
TMT signal-to-noise ratio [2]: 9.028
irisin/adipsin TMT signal-to-noise ratio [2]: 0.064
TMT signal-to-noise ratio [3]: 230.984
irisin/adipsin TMT signal-to-noise ratio [3]: 0.446
TMT signal-to-noise ratio [4]: 49.7858
irisin/adipsin TMT signal-to-noise ratio [4]: 0.199
